{"source": "patent US12391751B2", "about": "“Antibody against advanced glycation end products and use thereof” (Bloom Technology Corporation, priority 2018, dated 2025)", "molecules": {"B1": {"name": "PB-1: mouse monoclonal antibody raised against A-peak-BSA; heavy-chain variable region SEQ ID NO 18, light-chain variable region SEQ ID NO 22 (antibody, listed as Mus musculus, V domains shown)", "VH": "EVRLQQSGPELVKPGTSVKISCKASGYSFTGYYMHWVKQSPVKSLEWIGRIIPYNGATSYNQNFKDKASLTVDKSSRTAYMDLHSLTSEDSAVYYCARSRYYGRAPYYFDYWGQGTTLTVSS", "VL": "DVVVTQTPLSLPVSLGDQASISCRSSQSIVHSNGNTYLEWYLQKPGQSPKLLIYKVSNRFSGVPDRISGSGSGTDFTLKISRVEAGDLGVYSCFQGSHVPFTFGSGTKLEIK"}}, "assay_type_in_all_cases": "binding", "key": {"[1]": {"assay": "Reactivity of PB-1 with known AGEs by competitive ELISA (Example 31)", "conditions": "immobilized A-peak-BSA", "procedure": "Competitive ELISA was conducted using the reagents described in Example 13. A solution of A-peak-BSA prepared into 1 μg/mL in a coating solution was added at 100 μL/well to a 96-well microtiter plate (Costar) and incubated overnight at 4° C.\nEach well after the immobilization treatment was washed three times with a washing solution (300 μL), and a blocking solution (200 μL) was added thereto and left at room temperature for 1 hour.\nGAL691 (prepared in Example 16), GLAP (prepared in Example 12), Lys-hydroxy-triosidine (prepared in Example 17), GA-pyridine (prepared in Example 28), GOLD (prepared in Example 29), and Z-Lys were each dissolved in a phosphate buffer solution (0.2 M, pH 7.4) to prepare a 100 mM solution. Then, a 10 mM solution was prepared by dilution 10-fold with a diluting solution containing BSA (1 mg/mL, FUJIFILM Wako Pure Chemical Corp.). Sample solutions of 4-fold dilution series of 0.04, 0.16, 0.63, and 2.5 mM were further prepared with a diluting solution containing a 10% (v/v) phosphate buffer solution and 1 mg/mL BSA. Ten-fold dilutions of a phosphate buffer solution with a diluting solution containing 1 mg/mL BSA were prepared as blank solutions containing no sample in the same way as above. A 0.1 μg/mL solution of the PB-1 antibody was prepared with a diluting solution containing 1 mg/mL BSA.\nEach well treated with the blocking solution was washed three times with a washing solution (300 μL), and the sample solutions of 4-fold dilution series (50 μL each) and the PB-1 antibody dilution solution (50 μL) were added thereto, stirred with a plate mixer for 2 minutes, and then incubated at room temperature for 1 hour.\nAfter the competitive reaction, each well was washed three times with a washing solution (300 μL), and peroxidase-labeled anti-mouse IgG (H+L) polyclonal antibody, F(ab′)2 fragment (Kirkegaard & Perry Laboratories, Inc.) diluted into 0.05 μg/mL with a diluting solution containing 1 mg/mL BSA was added at 100 μL/well and left standing at room temperature for 1 hour.\nAfter washing three times with a washing solution (300 μL), a substrate solution (ELISA POD substrate TMB kit (Popular), Nacalai Tesque, Inc.) was added at 100 μL/well and incubated at room temperature for 10 minutes under light shielding. Then, color development was terminated by the addition of 2 N sulfuric acid (50 μL).\nAbsorbance was measured at a dominant wavelength of 450 nm and a sub-wavelength of 650 nm with a microplate reader (Cytation 5, BioTek Instrument Inc.), and the absorbance at the sub-wavelength was subtracted from the absorbance at the dominant wavelength. Change in the absorbance of GAL691, GLAP, Lys-hydroxy-triosidine, GA-pyridine, GOLD, and Z-Lys was indicated as relative values to the absorbance of the blank solution."}, "[2]": {"biological_target": "GO-AGEs-BSA (Bos taurus, UniProt P02769)", "sequence (P02769 25-607)": "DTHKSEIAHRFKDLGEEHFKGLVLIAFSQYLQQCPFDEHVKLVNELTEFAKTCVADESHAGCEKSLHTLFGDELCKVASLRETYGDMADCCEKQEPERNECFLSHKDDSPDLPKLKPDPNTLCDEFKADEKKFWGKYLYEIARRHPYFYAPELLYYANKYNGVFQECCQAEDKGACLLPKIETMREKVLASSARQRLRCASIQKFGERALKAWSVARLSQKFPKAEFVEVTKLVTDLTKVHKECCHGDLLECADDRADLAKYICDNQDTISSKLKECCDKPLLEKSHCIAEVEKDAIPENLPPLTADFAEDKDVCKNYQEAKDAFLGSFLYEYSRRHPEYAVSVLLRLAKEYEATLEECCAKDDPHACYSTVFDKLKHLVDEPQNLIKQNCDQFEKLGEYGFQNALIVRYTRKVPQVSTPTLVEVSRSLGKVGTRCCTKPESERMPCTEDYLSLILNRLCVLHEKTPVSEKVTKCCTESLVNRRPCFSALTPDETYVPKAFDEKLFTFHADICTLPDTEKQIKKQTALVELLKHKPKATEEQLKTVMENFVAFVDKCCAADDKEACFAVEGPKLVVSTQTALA", "assay": "Specificity of PB-1 by competitive ELISA (Example 30)", "conditions": "A-peak-BSA or Glycer-AGEs-BSA immobilized, competitor 10 μg/mL, PB-1 0.05 μg/mL", "procedure": "(§1) A-peak-BSA or Glycer-AGEs-BSA prepared into a concentration of 1 μg/mL with a coating solution (Example 13) was added at 100 μL/well to a 96-well microtiter plate (Costar) and immobilized overnight at 4° C.\n(§2) The plate was washed three times with PBS containing 0.05% (v/v) Tween 20 (PBS-T) and then blocked with PBS-T containing 0.5% (w/v) gelatin for 1 hour.\n(§3) Bovine serum albumin (BSA), BSA containing AGEs derived from glucose (Glu-AGEs-BSA), BSA containing AGEs derived from fructose (Fru-AGEs-BSA), BSA containing AGEs derived from glycolaldehyde (Glycol-AGEs-BSA), BSA containing AGEs derived from glyceraldehyde (Glycer-AGEs-BSA), BSA containing NE-carboxyethyllysine (CEL-AGEs-BSA), BSA containing NE-carboxymethyllysine (CML-AGEs-BSA), BSA containing AGEs derived from glyoxal (GO-AGEs-BSA), BSA containing AGEs derived from methylglyoxal (MGO-AGEs-BSA), and A-peak-BSA diluted into 10 μg/mL with PBS-T containing 0.1% (w/v) gelatin were each added at 50 μL/well to the antigen-immobilized plate, and the PB-1 antibody diluted into 0.05 μg/mL with PBS-T containing 0.1% (w/v) gelatin was further added at 50 μL/well, stirred with a plate mixer, and then left standing at room temperature for 1 hour.\n(§4) After washing, peroxidase-labeled anti-mouse IgG (H+L) polyclonal antibody, F(ab′)2 fragment (Kirkegaard & Perry Laboratories, Inc.) diluted into 0.05 μg/mL with PBS-T containing 0.1% (w/v) gelatin was added at 100 μL/well and left standing at room temperature for 1 hour.\n(§5) After washing, ELISA POD substrate TMB kit (Nacalai Tesque, Inc.) was added at 100 μL/well and left standing at room temperature in the dark. Ten minutes later, color development was terminated by the addition of 2 N sulfuric acid (50 μL/well). Absorbance was measured at a dominant wavelength of 450 nm and a sub-wavelength of 650 nm with a microplate reader (Cytation 5, BioTek Instrument Inc.), and the absorbance at the sub-wavelength was subtracted from the absorbance at the dominant wavelength.\n(§6) The ordinate of the graph depicts change in absorbance relative to that of control BSA defined as 1. When A-peak-BSA and Glycer-AGEs-BSA were immobilized, the novel monoclonal antibody PB-1 was also positive to Glycol-AGEs-BSA, Glycer-AGEs-BSA, and A-peak-BSA and negative to Glu-AGEs-BSA, Fru-AGEs-BSA, CEL-AGEs-BSA, CML-AGEs-BSA, GO-AGEs-BSA, and MGO-AGEs-BSA in terms of specificity."}, "[3]": {"biological_target": "Glycol-AGEs-BSA (Bos taurus, UniProt P02769)", "sequence (P02769 25-607)": "as above", "assay": "Specificity of PB-1 by competitive ELISA (Example 30)", "conditions": "A-peak-BSA or Glycer-AGEs-BSA immobilized, competitor 10 μg/mL, PB-1 0.05 μg/mL", "procedure": "as §1, §2, §3, §4, §5, §6"}, "[4]": {"biological_target": "CML-AGEs-BSA (Bos taurus, UniProt P02769)", "sequence (P02769 25-607)": "as above", "assay": "Specificity of PB-1 by competitive ELISA (Example 30)", "conditions": "A-peak-BSA or Glycer-AGEs-BSA immobilized, competitor 10 μg/mL, PB-1 0.05 μg/mL", "procedure": "as §1, §2, §3, §4, §5, §6"}, "[5]": {"biological_target": "MGO-AGEs-BSA (Bos taurus, UniProt P02769)", "sequence (P02769 25-607)": "as above", "assay": "Specificity of PB-1 by competitive ELISA (Example 30)", "conditions": "A-peak-BSA or Glycer-AGEs-BSA immobilized, competitor 10 μg/mL, PB-1 0.05 μg/mL", "procedure": "as §1, §2, §3, §4, §5, §6"}, "[6]": {"biological_target": "A-peak-BSA (Bos taurus, UniProt P02769)", "sequence (P02769 25-607)": "as above", "assay": "Specificity of PB-1 by competitive ELISA (Example 30)", "conditions": "A-peak-BSA or Glycer-AGEs-BSA immobilized, competitor 10 μg/mL, PB-1 0.05 μg/mL", "procedure": "as §1, §2, §3, §4, §5, §6"}, "[7]": {"biological_target": "Fru-AGEs-BSA (Bos taurus, UniProt P02769)", "sequence (P02769 25-607)": "as above", "assay": "Specificity of PB-1 by competitive ELISA (Example 30)", "conditions": "A-peak-BSA or Glycer-AGEs-BSA immobilized, competitor 10 μg/mL, PB-1 0.05 μg/mL", "procedure": "as §1, §2, §3, §4, §5, §6"}, "[8]": {"biological_target": "CEL-AGEs-BSA (Bos taurus, UniProt P02769)", "sequence (P02769 25-607)": "as above", "assay": "Specificity of PB-1 by competitive ELISA (Example 30)", "conditions": "A-peak-BSA or Glycer-AGEs-BSA immobilized, competitor 10 μg/mL, PB-1 0.05 μg/mL", "procedure": "as §1, §2, §3, §4, §5, §6"}, "[9]": {"biological_target": "Glycer-AGEs-BSA (Bos taurus, UniProt P02769)", "sequence (P02769 25-607)": "as above", "assay": "Specificity of PB-1 by competitive ELISA (Example 30)", "conditions": "A-peak-BSA or Glycer-AGEs-BSA immobilized, competitor 10 μg/mL, PB-1 0.05 μg/mL", "procedure": "as §1, §2, §3, §4, §5, §6"}, "[10]": {"biological_target": "Glu-AGEs-BSA (Bos taurus, UniProt P02769)", "sequence (P02769 25-607)": "as above", "assay": "Specificity of PB-1 by competitive ELISA (Example 30)", "conditions": "A-peak-BSA or Glycer-AGEs-BSA immobilized, competitor 10 μg/mL, PB-1 0.05 μg/mL", "procedure": "as §1, §2, §3, §4, §5, §6"}}}
{"molecule": "B1", "values": [{"measurement": "recognition of GA-pyridine", "setting": "[1]", "result": "does not recognize"}, {"measurement": "recognition of GLAP", "setting": "[1]", "result": "does not recognize"}, {"measurement": "recognition of GOLD", "setting": "[1]", "result": "does not recognize"}, {"measurement": "recognition of Lys-hydroxy-triosidine", "setting": "[1]", "result": "does not recognize"}, {"measurement": "specificity: reactivity with GO-AGEs-BSA", "setting": "[2]", "result": "negative"}, {"measurement": "specificity: reactivity with Glycol-AGEs-BSA", "setting": "[3]", "result": "positive"}, {"measurement": "specificity: reactivity with CML-AGEs-BSA", "setting": "[4]", "result": "negative"}, {"measurement": "specificity: reactivity with MGO-AGEs-BSA", "setting": "[5]", "result": "negative"}, {"measurement": "specificity: reactivity with A-peak-BSA", "setting": "[6]", "result": "positive"}, {"measurement": "specificity: reactivity with Fru-AGEs-BSA", "setting": "[7]", "result": "negative"}, {"measurement": "specificity: reactivity with CEL-AGEs-BSA", "setting": "[8]", "result": "negative"}, {"measurement": "specificity: reactivity with Glycer-AGEs-BSA", "setting": "[9]", "result": "positive"}, {"measurement": "specificity: reactivity with Glu-AGEs-BSA", "setting": "[10]", "result": "negative"}]}
